Results published in patent publication CN110964118A (UNIV CHINA PHARMA, dated 2020).

How the values were obtained:
[1] = biological target: T1, CD24裸肽 (CD24 naked peptide, SPR analyte) (human, UniProt P25063 27-59, limits assumed); experiment: SPR (Biacore X100), cG7-sTGFBR2 captured by anti-human IgG(Fc) on a CM5 chip, CD24 naked peptide as analyte, 25℃
T1 construct: also called 抗原CD24
T1 peptide (looked up): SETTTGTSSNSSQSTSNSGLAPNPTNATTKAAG

[2] = biological target: 转化生长因子-β1 (TGF-β1) (human, UniProt P01137 279-390); experiment: SPR (Biacore X100), cG7-sTGFBR2 captured by anti-human IgG(Fc) on a CM5 chip, TGF-β1 as analyte, 25℃
Sequence of 转化生长因子-β1 (TGF-β1) (P01137 279-390 limits assumed): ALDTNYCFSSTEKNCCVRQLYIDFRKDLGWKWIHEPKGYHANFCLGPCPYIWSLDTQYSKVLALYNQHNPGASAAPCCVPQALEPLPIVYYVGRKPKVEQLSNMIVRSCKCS

B1: 靶向CD24的双特异性融合抗体cG7-sTGFBR2 (anti-CD24 humanized chimeric antibody cG7 fused at the heavy chain C-terminus via Gly4Ser to the human TGFBR2 extracellular domain … (bispecific antibody, human IgG1, kappa)
heavy: not shown
light: DIVMTQTPLSLSVTIGQPASISCKSSQSLLHSDGKTYLNWLLQRPGQSPKRLIYLVSKLDSGVPDRFTGSGSGTDFTLKVSRVEAEDLGVYYCWQGAHFPYTFGGGTKLEIKVDTVAAPSVFIFPPSDEQLKSGTASVVCLLNNFYPREAKVQWKVDNALQSGNSQESVTEQDSKDSTYSLSSTLTLSKADYEKHKVYACEVTHQGLSSPVTKSFNRGEC
notes: also called 融合双特异性抗体cG7-sTGFBR2
Kd [1]: 0.122 nM
koff [1]: 1.14e-05 s⁻¹
kon [1]: 93700 M⁻¹ s⁻¹
Kd [2]: 55.5 nM
koff [2]: 0.0636 s⁻¹
kon [2]: 1.15e+06 M⁻¹ s⁻¹
